T1: I-LtrI (Leptographium truncatum, UniProt C7SWF3 C7SWF3:407-712)
T1 sequence: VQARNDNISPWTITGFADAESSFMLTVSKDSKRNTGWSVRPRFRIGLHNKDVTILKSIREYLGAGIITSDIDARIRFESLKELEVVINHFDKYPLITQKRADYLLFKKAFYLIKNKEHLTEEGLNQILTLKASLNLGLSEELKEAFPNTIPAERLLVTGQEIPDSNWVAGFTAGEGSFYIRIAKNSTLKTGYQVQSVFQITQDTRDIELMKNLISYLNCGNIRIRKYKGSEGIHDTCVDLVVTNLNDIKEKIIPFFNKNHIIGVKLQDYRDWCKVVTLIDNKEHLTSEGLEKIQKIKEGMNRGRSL

T2: I-OnuI (Ophiostoma novo-ulmi)
T2 chain: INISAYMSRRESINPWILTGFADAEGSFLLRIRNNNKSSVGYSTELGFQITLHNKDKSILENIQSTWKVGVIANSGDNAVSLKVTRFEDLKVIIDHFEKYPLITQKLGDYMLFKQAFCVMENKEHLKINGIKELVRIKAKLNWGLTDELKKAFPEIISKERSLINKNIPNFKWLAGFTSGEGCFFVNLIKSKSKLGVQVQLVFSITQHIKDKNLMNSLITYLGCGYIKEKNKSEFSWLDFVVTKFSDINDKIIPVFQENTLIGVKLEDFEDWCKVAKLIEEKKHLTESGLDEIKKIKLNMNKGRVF


Tests used:
I-LtrI = biological target: T1, I-LtrI; test: structure; co-crystal structure at 2.7 A (PDB 3R7P); settings: overhang ends
Experimental: To obtain I-LtrI-DNA co-crystals, the DNA oligonucleotides (5′-[…]-3′ (SEQ ID NO: 119) and 5′-[…]-3′ (SEQ ID NO:120)) were purchased from Integrated DNA Technologies ([…], standard desalting purification). The oligonucleotides were dissolved in TE buffer (10 mM Tris-HCl (pH 8.0) and 1 mM EDTA), and the complementary DNA strands were annealed by incubation at 95° C. for 10 min and slow cooling to 4° C. over a six hour period. […] The protein-DNA drops were mixed in a 1:1 volume ratio with a reservoir solution containing 100 mM Bis-Tris (pH 6.5), 200 mM magnesium chloride, and 20% (v/v) polyethylene glycol 3500 and equilibrated at 22° C. The crystals diffracted up to approximately 2.7 Å resolution at the ALS beamline 5.0.1. The data set was processed using HKL2000 package. The polyalanine model of I-OnuI/DNA complex (PDB ID: 3QQY) was used as a search model for molecular replacement. One copy of the search model was found and the structure was refined using REFMAC5. The final model was deposited in RCSB Protein Data Bank with ID code 3R7P.

I-OnuI = biological target: T2, I-OnuI; test: structure; co-crystal structure at 2.4 A (PDB 3QQY); settings: tags: GST fusion (pGEX-6P-3), tag removed by PreScission protease; label: 32P (radiolabeled) in EMSA and cleavage

Binder | binding result (I-LtrI) | binding result (I-OnuI)
I-LtrI co-crystal duplex (dsDNA) DNA 1: GGTCTAAACGTCGTATAGGAGCATTTGG DNA 2: CAAATGCTCCTATACGACGTTTAGACCC | binds | 
I-OnuI wild-type target site (RPS3) (dsDNA) DNA 1: TTTCCACTTATTCAACCTTTTA DNA 2: TAAAAGGTTGAATAAGTGGAAA |  | binds

Reference: patent publication US20140148361, “Generation and Expression of Engineered I-ONUI Endonuclease and Its Homologues and Uses Thereof” (published 2014)
